Assay results as given in article PMC6773851, “Identification of protein-protein and ribonucleoprotein complexes containing Hfq” (Scientific Reports, 2019).

Key:
[1] = tested on: HfqH6 (Ec-HfqHis6) (Escherichia coli); experiment: MST; details: Hill coefficient 4.0; concentration calculated with 1 kb average length; MST: 50 mM Tris-HCl pH 7.6, 50 mM NH4Cl, 1 mM EDTA, 0.1% Triton X100, 5% glycerol; room temperature; 100 nM labelled HfqH6. Total E. coli RNA (EC50 3.2e-7 M …)
[2] = biological target: T1, Ec-HfqHis6 (purified) (E. coli, UniProt P0A6X3 1-102); experiment: MST; as the MST without RNA, but in the presence of E. coli total RNA; apparent affinity; details: both partners purified
T1 construct: In MST labelled with a fluorescent dye (Protein Labeling Kit RED-NHS); also called HfqH6; purified Hfq

[3] = biological target: T1, Ec-HfqHis6 (purified); experiment: MST; one partner labelled (RED-NHS) and constant (HfqH6 100 nM), the other titrated; standard buffer (50 mM Tris-HCl pH7.6, 50 mM NH4Cl, 1 mM EDTA, 0.1% Triton X100, 5% glycerol); room temperature; Hill model; without RNA; details: both partners purified

T1 sequence (P0A6X3 whole entry): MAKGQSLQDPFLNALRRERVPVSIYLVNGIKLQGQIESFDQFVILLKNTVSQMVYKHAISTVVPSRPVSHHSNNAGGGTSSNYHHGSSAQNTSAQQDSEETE

Molecule | K half [1] [nM] | fold decrease of the apparent affinity in the presence of total RNA [2] [fold] | EC50 [3] [µM]
poly(A) | 600 | – | –
Poly(A)polymerase, PAP (purified) (natural protein, E. coli, UniProt P0ABF1 11-465, looked up, Poly(A) polymerase I, E. coli) KVLSREESEAEQAVARPQVTVIPREQHAISRKDISENALKVMYRLNKAGYEAWLVGGGVRDLLLGKKPKDFDVTTNATPEQVRKLFRNCRLVGRRFRLAHVMFGPEIIEVATFRGHHEGNVSDRTTSQRGQNGMLLRDNIFGSIEEDAQRRDFTINSLYYSVADFTVRDYVGGMKDLKDGVIRLIGNPETRYREDPVRMLRAVRFAAKLGMRISPETAEPIPRLATLLNDIPPARLFEESLKLLQAGYGYETYKLLCEYHLFQPLFPTITRYFTENGDSPMERIIEQVLKNTDTRIHNDMRVNPAFLFAAMFWYPLLETAQKIAQESGLTYHDAFALAMNDVLDEACRSLAIPKRLTTLTRDIWQLQLRMSRRQGKRAWKLLEHPKFRAAYDLLALRAEVERNAELQRLVKWWGEFQVSAPPDQKGMLNELDEEPSPRRRTRRPRKRAPRREGTA | – | ~10 | < 10
